Data: the supplement of paper PMC10567573

B1: CSTF3 (parent)
chain: YVPEKVKKAEKKLEENPYDLDAWS
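Further: lentivirally expressed fusions sorted by FACS into six bins by GFP to DsRed ratio, PSI derived from sequencing read proportions per bin multiplied by bin number.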

Variants of: B1
Assay: protein stability index of a GFP-peptide fusion (GPS, HEK-293T) (PSI 1-6); higher = more stable
Conditions: c terminus: a fixed tail appended
With YVCEKVKKAEKKLEENPYDLDAWS the protein stability index was 2.46.
YVNEKVKKAEKKLEENPYDLDAWS showed a protein stability index of 2.12.
In the case of YVWEKVKKAEKKLEENPYDLDAWS, the protein stability index is reported as 1.76.
In the case of YVSEKVKKAEKKLEENPYDLDAWS, the protein stability index is reported as 2.23.
Variant YVKEKVKKAEKKLEENPYDLDAWS has a protein stability index of 2.15.
Work on YVYEKVKKAEKKLEENPYDLDAWS yielded a protein stability index of 3.21.
For YVMEKVKKAEKKLEENPYDLDAWS, the protein stability index was 1.79.
With YVQEKVKKAEKKLEENPYDLDAWS the protein stability index was 1.89.
YVREKVKKAEKKLEENPYDLDAWS showed a protein stability index of 2.44.
Variant YVLEKVKKAEKKLEENPYDLDAWS has a protein stability index of 1.74.
Work on YVTEKVKKAEKKLEENPYDLDAWS yielded a protein stability index of 2.35.
YVFEKVKKAEKKLEENPYDLDAWS gave a protein stability index of 1.89.
Variant YVEEKVKKAEKKLEENPYDLDAWS has a protein stability index of 2.7.
YVIEKVKKAEKKLEENPYDLDAWS gave a protein stability index of 1.99.
YVHEKVKKAEKKLEENPYDLDAWS gave a protein stability index of 2.47.
YVDEKVKKAEKKLEENPYDLDAWS showed a protein stability index of 2.69.
For YVAEKVKKAEKKLEENPYDLDAWS, the protein stability index was 2.27.
For YVVEKVKKAEKKLEENPYDLDAWS, the protein stability index was 1.97.
For YVGEKVKKAEKKLEENPYDLDAWS, the protein stability index was 2.28.
Work on YVPRKVKKAEKKLEENPYDLDAWS yielded a protein stability index of 2.8.
In the case of YVPSKVKKAEKKLEENPYDLDAWS, the protein stability index is reported as 1.62.
YVPIKVKKAEKKLEENPYDLDAWS gave a protein stability index of 2.8.
With YVPCKVKKAEKKLEENPYDLDAWS the protein stability index was 2.43.
For YVPHKVKKAEKKLEENPYDLDAWS, the protein stability index was 2.44.
Variant YVPVKVKKAEKKLEENPYDLDAWS has a protein stability index of 2.69.
YVPWKVKKAEKKLEENPYDLDAWS showed a protein stability index of 2.28.
Work on YVPGKVKKAEKKLEENPYDLDAWS yielded a protein stability index of 2.58.
YVPMKVKKAEKKLEENPYDLDAWS showed a protein stability index of 1.9.
Work on YVPAKVKKAEKKLEENPYDLDAWS yielded a protein stability index of 3.03.
In the case of YVPNKVKKAEKKLEENPYDLDAWS, the protein stability index is reported as 2.19.
Variant YVPQKVKKAEKKLEENPYDLDAWS has a protein stability index of 3.41.
With YVPPKVKKAEKKLEENPYDLDAWS the protein stability index was 2.3.
YVPYKVKKAEKKLEENPYDLDAWS showed a protein stability index of 3.67.
Variant YVPKKVKKAEKKLEENPYDLDAWS has a protein stability index of 3.35.
Variant YVPTKVKKAEKKLEENPYDLDAWS has a protein stability index of 2.56.
With YVPFKVKKAEKKLEENPYDLDAWS the protein stability index was 2.49.
YVPEKVKKAEMKLEENPYDLDAWS showed a protein stability index of 2.42.
YVPEKVKKAEAKLEENPYDLDAWS showed a protein stability index of 2.32.
With YVPEKVKKAECKLEENPYDLDAWS the protein stability index was 2.65.
Work on YVPEKVKKAEEKLEENPYDLDAWS yielded a protein stability index of 2.54.
Variant YVPEKVKKAENKLEENPYDLDAWS has a protein stability index of 2.67.
Variant YVPEKVKKAEGKLEENPYDLDAWS has a protein stability index of 2.01.
For YVPEKVKKAEDKLEENPYDLDAWS, the protein stability index was 2.07.
In the case of YVPEKVKKAEIKLEENPYDLDAWS, the protein stability index is reported as 3.43.
Variant YVPEKVKKAEFKLEENPYDLDAWS has a protein stability index of 2.06.
YVPEKVKKAELKLEENPYDLDAWS showed a protein stability index of 2.31.
In the case of YVPEKSKKAEKKLEENPYDLDAWS, the protein stability index is reported as 2.15.
YVPEKRKKAEKKLEENPYDLDAWS gave a protein stability index of 1.35.
In the case of YVPEKWKKAEKKLEENPYDLDAWS, the protein stability index is reported as 2.57.
YVPEKYKKAEKKLEENPYDLDAWS showed a protein stability index of 2.75.
For YVPEKIKKAEKKLEENPYDLDAWS, the protein stability index was 3.77.
In the case of YVPEKTKKAEKKLEENPYDLDAWS, the protein stability index is reported as 1.58.
Variant YVPEKNKKAEKKLEENPYDLDAWS has a protein stability index of 2.72.
YVPEKPKKAEKKLEENPYDLDAWS gave a protein stability index of 1.26.
Variant YVPEKHKKAEKKLEENPYDLDAWS has a protein stability index of 2.04.
For YVPEKQKKAEKKLEENPYDLDAWS, the protein stability index was 2.35.
YVPEKEKKAEKKLEENPYDLDAWS showed a protein stability index of 2.
Work on YVPEKMKKAEKKLEENPYDLDAWS yielded a protein stability index of 2.66.
YVPEKDKKAEKKLEENPYDLDAWS showed a protein stability index of 2.22.
Work on YVPEKGKKAEKKLEENPYDLDAWS yielded a protein stability index of 2.04.
For YVPEKVMKAEKKLEENPYDLDAWS, the protein stability index was 1.52.
With YVPEKVHKAEKKLEENPYDLDAWS the protein stability index was 3.08.
Variant YVPEKVLKAEKKLEENPYDLDAWS has a protein stability index of 3.11.
Variant YVPEKVAKAEKKLEENPYDLDAWS has a protein stability index of 2.17.
YVPEKVCKAEKKLEENPYDLDAWS showed a protein stability index of 2.12.
YVPEKVWKAEKKLEENPYDLDAWS showed a protein stability index of 2.89.
YVPEKVEKAEKKLEENPYDLDAWS showed a protein stability index of 2.56.
For YVPEKVRKAEKKLEENPYDLDAWS, the protein stability index was 2.73.
Work on YVPEKVQKAEKKLEENPYDLDAWS yielded a protein stability index of 2.
YVPEKVVKAEKKLEENPYDLDAWS gave a protein stability index of 1.91.
Work on YVPEKVTKAEKKLEENPYDLDAWS yielded a protein stability index of 2.94.
Work on YVPEKVDKAEKKLEENPYDLDAWS yielded a protein stability index of 2.54.
With YVPEKVSKAEKKLEENPYDLDAWS the protein stability index was 2.47.
YVPEKVFKAEKKLEENPYDLDAWS showed a protein stability index of 2.26.
YVPEKVYKAEKKLEENPYDLDAWS showed a protein stability index of 2.48.
In the case of YVPEKVNKAEKKLEENPYDLDAWS, the protein stability index is reported as 3.83.
Work on YVPEKVGKAEKKLEENPYDLDAWS yielded a protein stability index of 1.91.
In the case of YVPEKVPKAEKKLEENPYDLDAWS, the protein stability index is reported as 3.13.
YVPEKVIKAEKKLEENPYDLDAWS showed a protein stability index of 2.17.
Work on MVPEKVKKAEKKLEENPYDLDAWS yielded a protein stability index of 4.81.
With LVPEKVKKAEKKLEENPYDLDAWS the protein stability index was 4.43.
CVPEKVKKAEKKLEENPYDLDAWS showed a protein stability index of 4.97.
EVPEKVKKAEKKLEENPYDLDAWS showed a protein stability index of 5.59.
Variant RVPEKVKKAEKKLEENPYDLDAWS has a protein stability index of 5.17.
With PVPEKVKKAEKKLEENPYDLDAWS the protein stability index was 5.24.
With HVPEKVKKAEKKLEENPYDLDAWS the protein stability index was 3.9.
Variant GVPEKVKKAEKKLEENPYDLDAWS has a protein stability index of 5.31.
IVPEKVKKAEKKLEENPYDLDAWS showed a protein stability index of 4.63.
For QVPEKVKKAEKKLEENPYDLDAWS, the protein stability index was 5.31.
In the case of WVPEKVKKAEKKLEENPYDLDAWS, the protein stability index is reported as 4.24.
For NVPEKVKKAEKKLEENPYDLDAWS, the protein stability index was 5.14.
Work on KVPEKVKKAEKKLEENPYDLDAWS yielded a protein stability index of 5.08.
Work on VVPEKVKKAEKKLEENPYDLDAWS yielded a protein stability index of 4.97.
In the case of SVPEKVKKAEKKLEENPYDLDAWS, the protein stability index is reported as 5.23.
